Biological target: T1, αβγENaC (Rattus norvegicus, UniProt P37089+P37090+P37091, S518C)
T1 construct: expressed in transfected cells; host or cells: Xenopus laevis oocytes (cRNA injection)
T1 sequence (P37089 1-698): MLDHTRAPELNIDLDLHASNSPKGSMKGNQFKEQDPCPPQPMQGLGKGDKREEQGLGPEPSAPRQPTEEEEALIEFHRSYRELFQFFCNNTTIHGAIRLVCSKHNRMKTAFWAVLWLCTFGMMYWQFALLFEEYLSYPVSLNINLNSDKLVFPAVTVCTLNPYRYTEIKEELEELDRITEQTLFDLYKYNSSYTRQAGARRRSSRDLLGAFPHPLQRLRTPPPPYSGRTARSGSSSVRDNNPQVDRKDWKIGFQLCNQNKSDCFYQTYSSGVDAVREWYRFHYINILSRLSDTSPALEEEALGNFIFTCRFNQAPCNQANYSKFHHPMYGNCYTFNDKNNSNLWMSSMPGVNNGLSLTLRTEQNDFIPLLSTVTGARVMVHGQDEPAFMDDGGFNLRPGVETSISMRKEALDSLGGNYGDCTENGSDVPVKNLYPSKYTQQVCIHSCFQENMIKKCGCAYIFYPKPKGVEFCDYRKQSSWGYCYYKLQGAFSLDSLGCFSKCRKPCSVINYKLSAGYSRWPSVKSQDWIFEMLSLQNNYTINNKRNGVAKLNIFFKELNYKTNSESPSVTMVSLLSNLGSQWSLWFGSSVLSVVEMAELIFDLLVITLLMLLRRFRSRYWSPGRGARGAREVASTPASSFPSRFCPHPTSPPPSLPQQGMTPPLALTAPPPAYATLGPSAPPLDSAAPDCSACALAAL
T1 sequence (P37090 1-638 S518C): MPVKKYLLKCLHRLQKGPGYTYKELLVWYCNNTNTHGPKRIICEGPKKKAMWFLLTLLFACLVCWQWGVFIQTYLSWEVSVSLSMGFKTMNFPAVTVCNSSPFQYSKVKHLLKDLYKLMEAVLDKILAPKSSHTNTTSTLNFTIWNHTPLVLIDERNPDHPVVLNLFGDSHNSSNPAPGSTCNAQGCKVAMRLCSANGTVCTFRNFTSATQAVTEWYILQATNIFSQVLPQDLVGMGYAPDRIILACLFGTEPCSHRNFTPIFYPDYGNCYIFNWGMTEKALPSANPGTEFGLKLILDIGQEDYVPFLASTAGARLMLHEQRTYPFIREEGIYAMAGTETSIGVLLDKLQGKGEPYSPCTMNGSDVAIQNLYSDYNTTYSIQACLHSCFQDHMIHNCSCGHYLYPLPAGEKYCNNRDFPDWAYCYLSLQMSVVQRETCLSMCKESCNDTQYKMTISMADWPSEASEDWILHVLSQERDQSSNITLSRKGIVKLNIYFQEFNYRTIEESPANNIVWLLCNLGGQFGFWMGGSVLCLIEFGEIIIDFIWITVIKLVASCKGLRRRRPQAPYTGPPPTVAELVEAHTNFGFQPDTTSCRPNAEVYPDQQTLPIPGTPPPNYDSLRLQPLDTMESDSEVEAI
T1 sequence (P37091 1-650): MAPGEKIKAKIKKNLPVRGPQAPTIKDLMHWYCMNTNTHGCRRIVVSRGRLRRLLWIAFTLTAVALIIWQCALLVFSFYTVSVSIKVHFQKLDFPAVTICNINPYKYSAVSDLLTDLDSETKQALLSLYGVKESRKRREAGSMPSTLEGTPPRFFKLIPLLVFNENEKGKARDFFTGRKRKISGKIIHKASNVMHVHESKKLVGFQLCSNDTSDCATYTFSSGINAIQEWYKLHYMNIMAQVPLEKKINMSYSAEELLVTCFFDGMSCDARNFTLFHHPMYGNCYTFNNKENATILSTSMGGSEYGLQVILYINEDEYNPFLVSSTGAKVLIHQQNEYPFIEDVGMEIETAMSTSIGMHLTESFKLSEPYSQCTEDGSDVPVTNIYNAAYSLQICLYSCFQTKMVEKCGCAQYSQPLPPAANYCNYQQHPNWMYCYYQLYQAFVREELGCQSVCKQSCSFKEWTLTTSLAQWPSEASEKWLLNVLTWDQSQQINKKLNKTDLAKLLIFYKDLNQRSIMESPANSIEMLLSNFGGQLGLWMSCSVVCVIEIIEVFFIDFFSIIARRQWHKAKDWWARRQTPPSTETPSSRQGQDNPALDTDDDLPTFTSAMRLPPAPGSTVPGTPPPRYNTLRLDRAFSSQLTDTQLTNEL
Test: Amiloride-sensitive whole cell current, two electrode voltage clamp, Xenopus laevis oocytes expressing αβγENaC
Type: cell-based
Conditions: Po increased to 1.0 by MTSET; SPLUNC1 coexpressed

B1: SPLUNC1: human SPLUNC1 (SEQ ID NO:1), 256 amino acid secreted PLUNC family protein; rSPLUNC1 is the purified V5/6His-tagged recombinant form (protein, listed as Homo sapiens)
chain: MFQTGGLIVFYGLLAQTMAQFGGLPVPLDQTLPLNVNPALPLSPTGLAGSLTNALSNGLLSGGLLGILENLPLLDILKPGGGTSGGLLGGLLGKVTSVIPGLNNIIDIKVTDPQLLELGLVQSPDGHRLYVTIPLGIKLQVNTPLVGASLLRLAVKLDITAEILAVRDKQERIHLVLGDCTHSPGSLQISLLDGLGPLPIQGLLDSLTGILNKVLPELVQGNVCPLVNEVLRGLDITLVHDIVNMLIHGLQFVIKV
modifications: V5/6His tag in recombinant form
notes: rSPLUNC1 is the purified V5/6His-tagged recombinant form
In the case of B1, the “overall current of ENaC containing βS518C mutant after MTSET” value is reported as “still reduced”.

Source: patent US9127040B2, “Regulation of sodium channels by PLUNC proteins” (The University of North Carolina at Chapel Hill, priority 2011, dated 2015)
